Data from patent publication US6524826B1, “Polynucleotides encoding cortistatin polypeptides” (Human Genome Sciences, Inc., priority 1996, dated 2003).

What was measured:
CA1 neuron = assay: action potential firing of a manually depolarized CA1 neuron; assay type: cell-based; settings: superfusion by 1 μM; CA1 neuron depolarized to about −65 mV
Description: (§1) For example, one can measure Cortistatin activity by manually depolarizing a CA1 neuron to about −65 mV (resting potential at about −70 mV) to elicit action potential firing. […] One can measure Population Spike (PS) amplitudes in CA1 neurons in vivo, by generating stimulus response curves and relating the PS amplitude monotonically to stimulus intensity tested at three response levels: threshold, half-maximal, and maximal. […] Another assay for polypeptides having Cortistatin activity is the effect of intracerebroventricular administration to male Sprague—Dawley rats, anesthetized with halothane, of the polypeptide in question on the sleep—wake cycle of the rat. An active polypeptide would increase the period of slow wave sleep and decrease REM sleep.

CA1 neurons = assay: Population Spike (PS) amplitudes in CA1 neurons in vivo; settings: microiontophoretic application of 1 mg ml^−1
Description: as §1

B1: Human Cortistatin: Human Cortistatin polypeptide, brain neuropeptide; mature protein amino acid residues about 1 to about 86 in SEQ ID NO:2 (protein)
chain: MPLSPGLLLLLLSGATATAALPLEGGPTGRDSEHMQEAAGIRKSSLLTFLAWWFEWTSQASAGPLIGEEAREVARRQEGAPPQQSA
modifications: Human Cortistatin
- action potential discharge (CA1 neuron): abolish the action potential discharge
- PS amplitudes in CA1 (CA1 neurons): significantly decrease PS amplitudes
